Read-outs that look alike come from different tables or passages of the source.
Legend:
[1] = Activity on lactose, products by HPAE-PAD; type: biochemical; details: lactose 100 mg/ml, 50° C.
[2] = pH profile of galactanase activity on lupin AZCL-galactan; type: biochemical; details: 15 min at 37° C., A590, unit assumed
Protocol: The pH profiles of the purified variants described above were established as follows: Galactanase activity at various pH was measured by mixing 500 μl 4 mg/ml lupin AZCL-galactan (Megazyme, Australia) in water with 500 μl buffer (50 mM sodium acetate, 50 mM potassium dihydrogenphosphate, 50 mM boric acid, 1 mM CaCl2, 0.01% Triton X-100 adjusted to pH 2.5, 3.5, 4.5, 5.5, 6.5, 7.5, 8.5 or 9.5 with HCl/NaOH) and 25 μl purified enzyme diluted to about 0.5-2 μg/ml in water. The mixture was incubated 15 min at 37° C., insoluble material was removed by centrifugation, and absorbance in the supernatant was measured at 590 nm.

[3] = type: biochemical; details: for Gal2 in reaction products / Gal3 in reaction products / Gal4 in reaction products / Gal in reaction products: Gal4 0.25 mg/ml, pH 6.5, 37° C.
Protocol: (§1) The activity on the galacto-oligosaccharide substrates prepared as described above and on the commercially available galactobiose (Gal2, Megazyme) was studied for the four purified galactanases HIGAL, MTGAL, AAGAL and BLGAL. The buffers and temperatures used were: 25 mM sodium acetate, 0.5 mM CaCl2, 0.005% Triton X-100, pH 6.5 at 37° C. for HIGAL and MTGAL, 50 mM sodium acetate, 1 mM CaCl2, pH 4 at 30° C. for AAGAL and 50 mM Mes, 1 mM CaCl2, pH 6.5 at 30° C. for BLGAL. Enzyme concentrations used were 0.8 μg/ml for HIGAL, 0.2 microgram/ml for MTGAL, and 10 micrograms/ml for AAGAL and BLGAL. With HIGAL and MTGAL substrate concentrations were all 0.25 mg/ml, whereas 0.34 mg/ml Gal2, 0.050 mg/ml Gal3 and 0.067 mg/ml Gal4 were used for AAGAL and BLGAL. Enzyme activity in samples withdrawn after various incubation times was inactivated by heating to 95° C. for 10 min. Compositions of reaction products were analysed using HPAE-PAD (Dionex) applying a PA-100 column and a linear gradient of sodium acetate (0-0.18 M) in 0.15 M NaOH. Response factors of the individual carbohydrates were estimated from reference runs with MeGal3, MeGal4, Gal, Gal2, Gal3 and Gal4. Selected results are shown in Tables 2-8 below (the figures indicating weight percentage of glactooligosaccharides).

[4] = Degradation of MeGal3, products by HPAE-PAD; type: biochemical; details: for Gal2 in reaction products / Gal3 in reaction products / Gal in reaction products / MeGal2 in reaction products / MeGal3 in reaction products / MeGal in reaction products: MeGal3 0.25 mg/ml, pH 6.5, 37° C.
Protocol: as §1

[5] = pH 4.5, incubation time 2 hours
[6] = pH 4.5, incubation time 23 hours
[7] = pH 4.5, incubation time 120 hours
[8] = pH 6.45, incubation time 120 hours

B1: MTGAL: GH Family 53 galactanase from Myceliophthora thermophila, SEQ ID NO: 1 (wild type parent) (protein, listed as Myceliophthora thermophila)
chain: ALTYRGVDWSSVVVEERAGVSYKNTNGNAQPLENILAANGVNTVRQRVWVNPADGNYNLDYNIAIAKRAKAAGLGVYIDFHYSDTWADPAHQTMPAGWPSDIDNLSWKLYNYTLDAANKLQNAGIQPTIVSIGNEIRAGLLWPTGRTENWANIARLLHSAAWGIKDSSLSPKPKIMIHLDNGWDWGTQNWWYTNVLKQGTLELSDFDMMGVSFYPFYSSSATLSALKSSLDNMAKTWNKEIAVVETNWPISCPNPRYSFPSDVKNIPFSPEGQTTFITNVANIVSSVSRGVGLFYWEPAWIHNANLGSSCADNTMFSQSGQALSSLSVFQRI
modifications: mat_peptide (1)..()
DP3 in products [1, 5]: 2.0 weight % | DP4+ in products [1, 5]: 0.5 weight % | Glu/Gal in products [1, 5]: 1.4 weight % | Lac/Gal2 in products [1, 5]: 96.0 weight % | DP3 in products [1, 6]: 7.0 weight % | DP4+ in products [1, 6]: 1.8 weight % | Glu/Gal in products [1, 6]: 12.5 weight % | Lac/Gal2 in products [1, 6]: 78.7 weight % | DP3 in products [1, 7]: 8.9 weight % | DP4+ in products [1, 7]: 1.1 weight % | Glu/Gal in products [1, 7]: 38.8 weight % | Lac/Gal2 in products [1, 7]: 51.2 weight % | DP4+ in products ([1]; pH 6.45, incubation time 2 hours): 1.9 weight % | DP4+ in products ([1]; pH 6.45, incubation time 23 hours): 1.9 weight % | DP3 in products [1, 8]: 11.7 weight % | DP4+ in products [1, 8]: 4.7 weight % | Lac/Gal2 in products [1, 8]: 62.6 weight % | Conversion of Lac ([1]; pH 4.5 and 6.5): significant conversion of Lac | Galactanase activity at pH 2.5 ([2]; pH 2.5): 0% | Galactanase activity at pH 3.5 ([2]; pH 3.5): 12% | Galactanase activity at pH 4.5 ([2]; pH 4.5): 41% | Galactanase activity at pH 5.5 ([2]; pH 5.5): 63% | Galactanase activity at pH 6.5 ([2]; pH 6.5): 90% | Galactanase activity at pH 7.5 ([2]; pH 7.5): 100% | Galactanase activity at pH 8.5 ([2]; pH 8.5): 54% | Galactanase activity at pH 9.5 ([2]; pH 9.5): 7% | Products of Gal4 (galactotetraose) degradation [3]: mainly to Gal and Gal2, whereas Gal3 did not accumulate | Gal2 in reaction products ([3]; incubation time 0.0 hours): 0.0 weight percentage | Gal3 in reaction products ([3]; incubation time 0.0 hours): 42.0 weight percentage | Gal4 in reaction products ([3]; incubation time 0.0 hours): 58.0 weight percentage | Gal in reaction products ([3]; incubation time 0.0 hours): 0.0 weight percentage | Gal2 in reaction products ([3]; incubation time 0.5 hours): 9.9 weight percentage | Gal3 in reaction products ([3]; incubation time 0.5 hours): 27.7 weight percentage | Gal4 in reaction products ([3]; incubation time 0.5 hours): 50.8 weight percentage | Gal in reaction products ([3]; incubation time 0.5 hours): 11.6 weight percentage | Gal2 in reaction products ([3]; incubation time 2.2 hours): 17.4 weight percentage | Gal3 in reaction products ([3]; incubation time 2.2 hours): 45.5 weight percentage | Gal4 in reaction products ([3]; incubation time 2.2 hours): 22.3 weight percentage | Gal in reaction products ([3]; incubation time 2.2 hours): 14.9 weight percentage | Gal2 in reaction products ([3]; incubation time 5.0 hours): 29.1 weight percentage | Gal3 in reaction products ([3]; incubation time 5.0 hours): 29.5 weight percentage | Gal4 in reaction products ([3]; incubation time 5.0 hours): 12.1 weight percentage | Gal in reaction products ([3]; incubation time 5.0 hours): 29.2 weight percentage | Gal2 in reaction products ([3]; incubation time 72.0 hours): 43.5 weight percentage | Gal3 in reaction products ([3]; incubation time 72.0 hours): 1.5 weight percentage | Gal4 in reaction products ([3]; incubation time 72.0 hours): 0.0 weight percentage | Gal in reaction products ([3]; incubation time 72.0 hours): 54.9 weight percentage | Gal2 in reaction products ([4]; incubation time 0.0 hours): 0.0 weight percentage | Gal3 in reaction products ([4]; incubation time 0.0 hours): 0.0 weight percentage | Gal in reaction products ([4]; incubation time 0.0 hours): 0.0 weight percentage | MeGal2 in reaction products ([4]; incubation time 0.0 hours): 0.0 weight percentage | MeGal3 in reaction products ([4]; incubation time 0.0 hours): 100.0 weight percentage | MeGal in reaction products ([4]; incubation time 0.0 hours): 0.0 weight percentage | Gal2 in reaction products ([4]; incubation time 0.5 hours): 0.0 weight percentage | Gal3 in reaction products ([4]; incubation time 0.5 hours): 0.0 weight percentage | Gal in reaction products ([4]; incubation time 0.5 hours): 0.0 weight percentage | MeGal2 in reaction products ([4]; incubation time 0.5 hours): 2.7 weight percentage | MeGal3 in reaction products ([4]; incubation time 0.5 hours): 87.2 weight percentage | MeGal in reaction products ([4]; incubation time 0.5 hours): 10.1 weight percentage | Gal2 in reaction products ([4]; incubation time 2.2 hours): 8.5 weight percentage | Gal3 in reaction products ([4]; incubation time 2.2 hours): 0.4 weight percentage | Gal in reaction products ([4]; incubation time 2.2 hours): 14.1 weight percentage | MeGal2 in reaction products ([4]; incubation time 2.2 hours): 1.9 weight percentage | MeGal3 in reaction products ([4]; incubation time 2.2 hours): 47.5 weight percentage | MeGal in reaction products ([4]; incubation time 2.2 hours): 27.6 weight percentage | Gal2 in reaction products ([4]; incubation time 5.0 hours): 10.9 weight percentage | Gal3 in reaction products ([4]; incubation time 5.0 hours): 15.7 weight percentage | Gal in reaction products ([4]; incubation time 5.0 hours): 2.2 weight percentage | MeGal2 in reaction products ([4]; incubation time 5.0 hours): 3.2 weight percentage | MeGal3 in reaction products ([4]; incubation time 5.0 hours): 50.6 weight percentage | MeGal in reaction products ([4]; incubation time 5.0 hours): 17.4 weight percentage | Gal2 in reaction products ([4]; incubation time 72.0 hours): 37.2 weight percentage | Gal3 in reaction products ([4]; incubation time 72.0 hours): 23.2 weight percentage | Gal in reaction products ([4]; incubation time 72.0 hours): 6.5 weight percentage | MeGal2 in reaction products ([4]; incubation time 72.0 hours): 3.5 weight percentage | MeGal3 in reaction products ([4]; incubation time 72.0 hours): 1.3 weight percentage | MeGal in reaction products ([4]; incubation time 72.0 hours): 28.3 weight percentage | Release of MeGal versus MeGal2 from MeGal3 ([4]; in words): much higher release of MeGal than MeGal2
